Experimental findings from the supplement of paper PMC10567573 are described below.

B1: CASP6 (parent)
chain: TCADRDNLTRRFSDLGFEVKCFND
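Also: lentivirally expressed fusions sorted by FACS into six bins by GFP to DsRed ratio, PSI derived from sequencing read proportions per bin multiplied by bin number.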

The variants in the data set derive from B1. Briefly: protein stability index of a GFP-peptide fusion (GPS, HEK-293T) (PSI 1-6); higher = more stable. Particulars: c terminus: a fixed tail appended.
As to TCADRDNLTRRFSDLIFEVKCFND [G16I], the protein stability index is 1.92.
As to TCADRDNLTRRFSDLFFEVKCFND [G16F], the protein stability index came to 2.03.
For TCADRDNLTRRFSDLAFEVKCFND [G16A], the protein stability index was determined as 2.99.
For TCADRDNLTRRFWDLGFEVKCFND [S13W], the protein stability index was 2.36.
The result for TCADRDNLTRRFHDLGFEVKCFND [S13H] reads 2.88; that for TCADRDNLTRRFEDLGFEVKCFND [S13E], 3.84; that for TCADRDNLTRRFKDLGFEVKCFND [S13K], 3.45.
On to TCADRDNLTRRFLDLGFEVKCFND [S13L], for which the protein stability index was 2.71.
For TCADRDNLTRRFRDLGFEVKCFND [S13R], the protein stability index was determined as 2.98.
For TCADRDNLTRRFTDLGFEVKCFND [S13T], the protein stability index amounted to 2.58.
In the case of TCADRDNLTRRFFDLGFEVKCFND [S13F], the protein stability index was determined as 2.7.
Turning to TCADRDNLTRRFIDLGFEVKCFND [S13I], the protein stability index came to 2.75.
For TCADRDNLTRRFNDLGFEVKCFND [S13N] the value was 3.44.
With TCADRDNLTRRFQDLGFEVKCFND [S13Q], the protein stability index turned out to be 3.65.
Regarding TCADRDNLTRRFPDLGFEVKCFND [S13P], the protein stability index was 2.86.
As to TCADRDNLTRRFVDLGFEVKCFND [S13V], the protein stability index stood at 2.32.
In the case of TCADRDNLTRRFADLGFEVKCFND [S13A], the protein stability index is 3.46.
The result for TCADRDNLTRRFMDLGFEVKCFND [S13M] reads 2.71; that for TCADRDNLTRRFGDLGFEVKCFND [S13G], 3; that for TCADRDNLTRRFCDLGFEVKCFND [S13C], 2.67.
For the variant TCADRDNLTRRFDDLGFEVKCFND [S13D], the protein stability index was 3.83.
The result for TCADRDNLTRRFYDLGFEVKCFND [S13Y] reads 2.7; that for TCADRDNLTRRFSDLGFEVPCFND [K20P], 3.58.
Take TCADRDNLTRRFSDLGFEVCCFND [K20C]: the protein stability index came to 2.75.
As to TCADRDNLTRRFSDLGFEVSCFND [K20S], the protein stability index stood at 3.17.
For TCADRDNLTRRFSDLGFEVGCFND [K20G], the protein stability index was determined as 3.54.
As for TCADRDNLTRRFSDLGFEVYCFND [K20Y], the protein stability index was determined as 2.2.
For TCADRDNLTRRFSDLGFEVLCFND [K20L] the value was 3.
For TCADRDNLTRRFSDLGFEVQCFND [K20Q], the protein stability index is 3.37.
The result for TCADRDNLTRRFSDLGFEVRCFND [K20R] reads 3.32.
Take TCADRDNLTRRFSDLGFEVTCFND [K20T]: the protein stability index turned out to be 3.15.
Regarding TCADRDNLTRRFSDLGFEVMCFND [K20M], the protein stability index turned out to be 2.57.
As to TCADRDNLTRRFSDLGFEVFCFND [K20F], the protein stability index amounted to 2.87.
As for TCADRDNLTRRFSDLGFEVHCFND [K20H], the protein stability index came out at 2.89.
Regarding TCADRDNLTRRFSDLGFEVVCFND [K20V], the protein stability index was found to be 2.83.
Take TCADRDNLTRRFSDLGFEVNCFND [K20N]: the protein stability index came out at 3.75.
Take TCADRDNLTRRFSDLGFEVDCFND [K20D]: the protein stability index was determined as 4.14.
As for TCADRDNLTRRFSDLGFEVICFND [K20I], the protein stability index stood at 2.42.
For the variant TCADRDNLTRRFSDLGFEVWCFND [K20W], the protein stability index is 2.56.
As to TCADRDNLTRRFSDLGFEVECFND [K20E], the protein stability index was found to be 3.6.
Take TCADRDNLTRRFSDLGFEVACFND [K20A]: the protein stability index worked out at 3.76.
TCADRDNLTRRFSDLGFEVKCGND [F22G]: the protein stability index turned out to be 3.37.
Turning to TCADRDNLTRRFSDLGFEVKCCND [F22C], the protein stability index came out at 3.83.
As to TCADRDNLTRRFSDLGFEVKCLND [F22L], the protein stability index amounted to 3.89.
In the case of TCADRDNLTRRFSDLGFEVKCTND [F22T], the protein stability index was 4.73.
As to TCADRDNLTRRFSDLGFEVKCMND [F22M], the protein stability index was found to be 3.96.
As for TCADRDNLTRRFSDLGFEVKCRND [F22R], the protein stability index was 3.73.
Consider TCADRDNLTRRFSDLGFEVKCNND [F22N], for which the protein stability index turned out to be 4.58.
Regarding TCADRDNLTRRFSDLGFEVKCKND [F22K], the protein stability index stood at 4.72.
With TCADRDNLTRRFSDLGFEVKCDND [F22D], the protein stability index was 4.95.
In the case of TCADRDNLTRRFSDLGFEVKCPND [F22P], the protein stability index came out at 4.32.
As to TCADRDNLTRRFSDLGFEVKCEND [F22E], the protein stability index was 4.46.
The result for TCADRDNLTRRFSDLGFEVKCQND [F22Q] reads 4.15; that for TCADRDNLTRRFSDLGFEVKCHND [F22H], 3.86; that for TCADRDNLTRRFSDLGFEVKCSND [F22S], 3.84.
Take TCADRDNLTRRFSDLGFEVKCIND [F22I]: the protein stability index was 3.9.
On to TCADRDNLTRRFSDLGFEVKCAND [F22A], for which the protein stability index came to 4.54.
Take TCADRDNLTRRFSVLGFEVKCFND [D14V]: the protein stability index came to 2.43.
TCADRDNLTRRFSELGFEVKCFND [D14E]: the protein stability index was determined as 3.34.
On to TCADRDNLTRRFSQLGFEVKCFND [D14Q], for which the protein stability index was found to be 2.93.
In the case of TCADRDNLTRRFSTLGFEVKCFND [D14T], the protein stability index is 2.27.
As for TCADRDNLTRRFSMLGFEVKCFND [D14M], the protein stability index is 1.97.
For TCADRDNLTRRFSFLGFEVKCFND [D14F], the protein stability index came out at 2.07.
The result for TCADRDNLTRRFSWLGFEVKCFND [D14W] reads 1.97; that for TCADRDNLTRRFSALGFEVKCFND [D14A], 3.23; that for TCADRDNLTRRFSSLGFEVKCFND [D14S], 2.46.
For TCADRDNLTRRFSNLGFEVKCFND [D14N] the value was 3.8.
For TCADRDNLTRRFSCLGFEVKCFND [D14C] the value was 2.91; for TCADRDNLTRRFSYLGFEVKCFND [D14Y], 2.46.
Take TCADRDNLTRRFSHLGFEVKCFND [D14H]: the protein stability index was found to be 2.4.
As for TCADRDNLTRRFSGLGFEVKCFND [D14G], the protein stability index was 3.46.
As to TCADRDNLTRRFSRLGFEVKCFND [D14R], the protein stability index was determined as 2.45.
With TCADRDNLTRRFSLLGFEVKCFND [D14L], the protein stability index worked out at 2.5.
Turning to TCADRDNLTRRFSPLGFEVKCFND [D14P], the protein stability index was found to be 2.47.
Consider TCADRDNLTRRFSILGFEVKCFND [D14I], for which the protein stability index was 2.79.
Regarding TCADRDNLTRRFSKLGFEVKCFND [D14K], the protein stability index is 3.36.
Turning to TCADRDNLTRRFSDLGFYVKCFND [E18Y], the protein stability index was determined as 2.29.
For the variant TCADRDNLTRRFSDLGFAVKCFND [E18A], the protein stability index worked out at 3.25.
Turning to TCADRDNLTRRFSDLGFMVKCFND [E18M], the protein stability index amounted to 2.22.
In the case of TCADRDNLTRRFSDLGFHVKCFND [E18H], the protein stability index is 2.48.
On to TCADRDNLTRRFSDLGFGVKCFND [E18G], for which the protein stability index was 2.87.
For TCADRDNLTRRFSDLGFKVKCFND [E18K] the value was 3.3; for TCADRDNLTRRFSDLGFWVKCFND [E18W], 2.55; for TCADRDNLTRRFSDLGFTVKCFND [E18T], 3.05.
For the variant TCADRDNLTRRFSDLGFVVKCFND [E18V], the protein stability index stood at 2.82.
In the case of TCADRDNLTRRFSDLGFRVKCFND [E18R], the protein stability index was determined as 3.14.
TCADRDNLTRRFSDLGFNVKCFND [E18N]: the protein stability index was determined as 3.44.
Turning to TCADRDNLTRRFSDLGFIVKCFND [E18I], the protein stability index was determined as 2.65.
As for TCADRDNLTRRFSDLGFSVKCFND [E18S], the protein stability index worked out at 2.89.
In the case of TCADRDNLTRRFSDLGFQVKCFND [E18Q], the protein stability index amounted to 3.1.
The result for TCADRDNLTRRFSDLGFDVKCFND [E18D] reads 3.86.
Take TCADRDNLTRRFSDLGFCVKCFND [E18C]: the protein stability index stood at 2.76.
Consider TCADRDNLTRRFSDLGFPVKCFND [E18P], for which the protein stability index is 3.49.
As for TCADRDNLTRRFSDLGFFVKCFND [E18F], the protein stability index was found to be 1.78.
